The text below walks through data of paper PMC10786891, “Massively parallel profiling of RNA-targeting CRISPR-Cas13d”.

Where a chain is given by its changes, count along the chain named. Names may count otherwise.

The chains are these.
T1: EsCas13d, nuclease-dead (Eubacterium siraeum, UniProt B0MS50, R295A;H300A;R849A;H854A)
T1 sequence: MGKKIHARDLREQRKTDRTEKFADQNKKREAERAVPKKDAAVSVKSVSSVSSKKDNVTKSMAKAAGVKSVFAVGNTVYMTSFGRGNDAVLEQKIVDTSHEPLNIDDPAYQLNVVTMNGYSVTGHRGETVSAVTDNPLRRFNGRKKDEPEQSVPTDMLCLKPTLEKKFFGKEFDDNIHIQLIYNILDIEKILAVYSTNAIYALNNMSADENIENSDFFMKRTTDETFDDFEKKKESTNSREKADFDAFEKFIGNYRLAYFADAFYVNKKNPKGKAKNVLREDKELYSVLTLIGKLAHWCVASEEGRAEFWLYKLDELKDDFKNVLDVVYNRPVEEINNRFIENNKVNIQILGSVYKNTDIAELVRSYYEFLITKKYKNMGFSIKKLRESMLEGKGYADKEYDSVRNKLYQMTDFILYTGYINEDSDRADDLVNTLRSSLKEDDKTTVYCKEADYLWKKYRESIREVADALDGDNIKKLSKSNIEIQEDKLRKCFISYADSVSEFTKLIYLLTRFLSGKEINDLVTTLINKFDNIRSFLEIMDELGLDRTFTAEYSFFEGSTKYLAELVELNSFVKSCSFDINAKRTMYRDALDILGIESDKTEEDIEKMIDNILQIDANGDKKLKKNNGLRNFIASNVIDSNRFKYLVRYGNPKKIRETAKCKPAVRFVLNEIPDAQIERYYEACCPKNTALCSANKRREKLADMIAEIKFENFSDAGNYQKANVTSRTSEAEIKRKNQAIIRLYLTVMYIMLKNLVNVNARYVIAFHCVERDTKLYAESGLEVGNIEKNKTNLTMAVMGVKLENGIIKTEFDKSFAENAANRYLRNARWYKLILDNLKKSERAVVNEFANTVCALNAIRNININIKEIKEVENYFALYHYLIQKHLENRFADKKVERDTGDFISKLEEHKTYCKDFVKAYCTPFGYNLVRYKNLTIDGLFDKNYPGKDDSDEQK

B1: target 3 U2G,G4C (mixed)
RNA 1: CACCCGUGCAAAAUUGCAGGGGUCUAAAACGACCUGAAUAUUUCAGAUCAAA
RNA 2: GGGAAUGGAUCCACAUCUACGAAUUCGUUUUUGAUCUGAAAUAUUCACGGCUGCAGAUCGGAAGAGCACACGU
B2: target 3 insG 3' of 22,insU 3' of 22 (mixed)
RNA 1: B1 RNA 1
RNA 2: GGGAAUGGAUCCACAUCUACGAAUUCGUUUGUUUGAUCUGAAAUAUUCAGGUCUGCAGAUCGGAAGAGCACACGU
B3: target 3 C6G,A11C (mixed)
RNA 1: B1 RNA 1
RNA 2: B1 RNA 2 with A41C, C46G, C48G, G50U
B4: target 3 insC 3' of 5,insU 3' of 5 (mixed)
RNA 1: B1 RNA 1
RNA 2: GGGAAUGGAUCCACAUCUACGAAUUCGUUUUUGAUCUGAAAUAUUCACUGGUCUGCAGAUCGGAAGAGCACACGU
B5: target 3 insC 3' of 21,insG 3' of 6 (mixed)
RNA 1: B1 RNA 1
RNA 2: GGGAAUGGAUCCACAUCUACGAAUUCGUUUUCUGAUCUGAAAUAUUCGAGGUCUGCAGAUCGGAAGAGCACACGU
B6: target 3 insC 3' of 22,insU 3' of 5 (mixed)
RNA 1: B1 RNA 1
RNA 2: B5 RNA 2 with U31C, C32U, G48A, A49U
B7: target 3 G4C,A5G (mixed)
RNA 1: B1 RNA 1
RNA 2: B1 RNA 2 with A47G, G50U
B8: target 3 insA 3' of 10,insU 3' of 5 (mixed)
RNA 1: B1 RNA 1
RNA 2: B4 RNA 2 with U44A, C46U, A47C, C48A
B9: target 3 insA 3' of 14,insC 3' of 3 (mixed)
RNA 1: B1 RNA 1
RNA 2: B4 RNA 2 with U42A, A43U, U44A, C46U, A47C, C48A, U49G, G51C
B10: target 3 insG 3' of 8,insU 3' of 6 (mixed)
RNA 1: B1 RNA 1
RNA 2: B4 RNA 2 with U45G, C46U, A47C, C48U, U49A
B11: target 3 insA 3' of 6,insA 3' of 4 (mixed)
RNA 1: B1 RNA 1
RNA 2: B4 RNA 2 with C48A, U49G, G50A
B12: target 3 G4C,U8G (mixed)
RNA 1: B1 RNA 1
RNA 2: B1 RNA 2 with U44G, G50U
B13: target 3 insA 3' of 22,insC 3' of 22 (mixed)
RNA 1: B1 RNA 1
RNA 2: B2 RNA 2 with G31A, U32C
B14: target 3 insG 3' of 22,insG 3' of 6 (mixed)
RNA 1: B1 RNA 1
RNA 2: B5 RNA 2 with U31G, C32U
B15: target 3 insG 3' of 5,insU 3' of 5 (mixed)
RNA 1: B1 RNA 1
RNA 2: B4 RNA 2 with C48G
B16: target 3 U8G,U22C (mixed)
RNA 1: B1 RNA 1
RNA 2: B1 RNA 2 with U30C, U44G, C48G, G50U
B17: target 3 U2A,A5G (mixed)
RNA 1: B1 RNA 1
RNA 2: B1 RNA 2 with A47G, C48G, G50A
B18: target 3 insC 3' of 8,insA 3' of 7 (mixed)
RNA 1: B1 RNA 1
RNA 2: B4 RNA 2 with U45C, C46U, U49A
B19: target 3 insU 3' of 9,insC 3' of 7 (mixed)
RNA 1: B1 RNA 1
RNA 2: B4 RNA 2 with C46U, A47C, U49A
B20: target 3 insA 3' of 4,insC 3' of 4 (mixed)
RNA 1: B1 RNA 1
RNA 2: B4 RNA 2 with C48G, U49A, G50C
B21: target 3 insA 3' of 10,insG 3' of 2 (mixed)
RNA 1: B1 RNA 1
RNA 2: B4 RNA 2 with U44A, C46U, A47C, C48A, U49G, G51U, U52G
B22: target 3 insG 3' of 7,insC 3' of 4 (mixed)
RNA 1: B1 RNA 1
RNA 2: B4 RNA 2 with C46G, A47C, C48A, U49G, G50C
B23: target 3 insG 3' of 6,insC 3' of 4 (mixed)
RNA 1: B1 RNA 1
RNA 2: B4 RNA 2 with A47G, C48A, U49G, G50C
B24: target 3 G3U,A5U (mixed)
RNA 1: B1 RNA 1
RNA 2: B1 RNA 2 with A47U, C48G, G49U, G50U
B25: target 1 C7U,U10G (mixed)
RNA 1: CACCCGUGCAAAAAUGCAGGGGUCUAAAACUGAGCGGAUAACCUCUCUAUGG
RNA 2: GGGAAUGGAUCCACAUCUACGAAUUCGUACCAUAGAGAGGUGAUUCGCUCACCGAGAUCGGAAGAGCACACGU
B26: target 1 U8A (mixed)
RNA 1: B25 RNA 1
RNA 2: B25 RNA 2 with G42U, U44A, U45C
B27: target 1 A1G,U8A (mixed)
RNA 1: B25 RNA 1
RNA 2: B25 RNA 2 with G42U, U44A, U45C, A51G

By Kd is commonly meant the equilibrium constant for the complex coming apart. Low values mean higher affinity, high ones lower affinity.

The data set has as its target T1, EsCas13d, nuclease-dead. As to the kind of experiment: crRNA (strand 1, pre-loaded); Mg2+; 40 mM Tris-HCl pH 7.5, 150 mM NaCl, 6 mM MgCl2, 1 mM DTT, 0.1% Tween-20, 0.2 mg/ml BSA; 25 C; 10 min per concentration, then washed. The note with it: tags: His6-TwinStrep-SUMO cleaved; N-terminal SNAP kept (SNAP-Surface 488); label: 3' end held by stalled T7 RNA polymerase.
As for B1, the Kd stood at 3.65 ± 0.55 nM. With B2 the figure was 28 ± 4.5 nM. With B3 the figure was 30.1 ± 4.65 nM. Turning to B4, the Kd is 5.23 ± 0.375 nM. As for B5, the Kd was 100 ± 40 nM. With B6 the figure was 12.3 ± 1.6 nM; with B7, 14.7 ± 1.1 nM; with B8, 58.5 ± 6.5 nM. The molecule B9 had a Kd of 59 ± 9.5 nM. The value for B10 was 28.3 ± 3.3 nM; that for B11 was 10.8 ± 0.9 nM; that for B12 was 69 ± 8 nM. The value for B13 was 15 ± 1.4 nM. B14 yielded a Kd of 90 ± 41.5 nM. This Kd is about 6-fold higher than that of the molecule before. B15 displayed a Kd of 18.1 ± 2.95 nM. The value for B16 was 90 ± 40 nM. With B17 the figure was 3.12 ± 0.355 nM.

B18 showed a Kd of 40.5 ± 4 nM. With B19 the figure was 100 ± 21 nM; with B20, about 110 nM. Regarding B21, the Kd was 42 ± 6.5 nM. As to B22, the Kd amounted to 64 ± 8 nM.

Molecule B23 gave a Kd of 13.2 ± 1.5 nM. Against the preceding molecule, the Kd is about 4.8-fold lower. As to B24, binding was characterised by a dissociation constant (Kd) of 32.5 ± 4.5 nM. Against the preceding molecule, the Kd is about 2.5-fold higher. Regarding B25, the Kd came to 11.2 ± 0.5 nM. The value for B26 was 22.2 ± 1.7 nM; that for B27 was 31.7 ± 1.8 nM.
